According to article PMC3709441 (The Biochemical journal, 2009):

T1: RnPP5 TPR wild type (rat protein phosphatase 5 TPR domain) (rat)
T1 sequence (P53042 whole entry, looked up): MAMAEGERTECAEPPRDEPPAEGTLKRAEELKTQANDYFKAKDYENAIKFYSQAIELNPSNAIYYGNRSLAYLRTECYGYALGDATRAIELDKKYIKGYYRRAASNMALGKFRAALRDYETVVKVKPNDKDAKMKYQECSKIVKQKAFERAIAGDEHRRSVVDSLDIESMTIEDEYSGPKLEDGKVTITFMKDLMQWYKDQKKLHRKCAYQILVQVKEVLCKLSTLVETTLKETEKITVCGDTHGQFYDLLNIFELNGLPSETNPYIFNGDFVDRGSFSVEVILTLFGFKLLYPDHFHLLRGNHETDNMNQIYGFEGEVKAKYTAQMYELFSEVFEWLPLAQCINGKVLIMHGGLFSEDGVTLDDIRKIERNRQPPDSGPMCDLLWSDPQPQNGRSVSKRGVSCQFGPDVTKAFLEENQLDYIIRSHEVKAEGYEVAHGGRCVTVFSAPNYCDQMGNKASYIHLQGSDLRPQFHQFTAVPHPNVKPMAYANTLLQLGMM

T2: HsPP5 TPR (human protein phosphatase 5 TPR domain, amino acids 1-181) (human, UniProt P53041 1-181)
T2 sequence (looked up): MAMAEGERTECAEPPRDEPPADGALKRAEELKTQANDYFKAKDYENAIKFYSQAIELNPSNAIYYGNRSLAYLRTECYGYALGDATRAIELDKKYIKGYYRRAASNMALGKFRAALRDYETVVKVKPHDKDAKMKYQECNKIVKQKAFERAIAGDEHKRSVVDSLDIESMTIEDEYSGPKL


Columns and labels:
Test in all cases: ELISA
RnPP5 TPR R117A (rat) = target: RnPP5 TPR R117A (rat)
RnPP5 TPR E56A (rat) = target: RnPP5 TPR E56A (rat)
RnPP5 TPR E76A (rat) = target: RnPP5 TPR E76A (rat)
RnPP5 TPR R113A (rat) = target: RnPP5 TPR R113A (rat)
RnPP5 TPR Y80A (rat) = target: RnPP5 TPR Y80A (rat)
RnPP5 TPR E29A (rat) = target: RnPP5 TPR E29A (rat)
RnPP5 TPR I63A (rat) = target: RnPP5 TPR I63A (rat)
[1] = target: T1, RnPP5 TPR wild type (rat protein phosphatase 5 TPR domain) (rat)
RnPP5 TPR K40A (rat) = target: RnPP5 TPR K40A (rat)
RnPP5 TPR R74A (rat) = target: RnPP5 TPR R74A (rat)
RnPP5 TPR R101A (rat) = target: RnPP5 TPR R101A (rat)
[2] = target: HsHop TPR2B (amino acids 353-477) (human, UniProt P31948 353-477)
Chain of HsHop TPR2B (amino acids 353-477) (P31948 353-477): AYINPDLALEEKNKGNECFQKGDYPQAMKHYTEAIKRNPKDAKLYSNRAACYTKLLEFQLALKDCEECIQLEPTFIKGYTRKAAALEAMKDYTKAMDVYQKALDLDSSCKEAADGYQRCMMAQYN

RnPP5 TPR K32A (rat) = target: RnPP5 TPR K32A (rat)
[3] = target: HsHop TPR1 (amino acids 1-118) (human, UniProt P31948 1-118)
Chain of HsHop TPR1 (amino acids 1-118) (P31948 1-118): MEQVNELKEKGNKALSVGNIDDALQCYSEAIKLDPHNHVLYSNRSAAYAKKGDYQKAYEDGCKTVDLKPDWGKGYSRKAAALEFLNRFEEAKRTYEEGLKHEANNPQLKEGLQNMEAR

[4] = target: T2, HsPP5 TPR (human protein phosphatase 5 …)
[5] = target: HsHop TPR2A (amino acids 223-352) (human, UniProt P31948 223-352)
Chain of HsHop TPR2A (amino acids 223-352) (P31948 223-352): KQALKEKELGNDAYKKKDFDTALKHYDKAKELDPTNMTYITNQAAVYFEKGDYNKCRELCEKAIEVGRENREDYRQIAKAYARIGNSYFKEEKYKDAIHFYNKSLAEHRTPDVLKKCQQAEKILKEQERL

Row | Molecule | A405 (ELISA) (absorbance at 405 nm) (RnPP5 TPR R117A (rat)) | A405 (ELISA) (absorbance at 405 nm) (RnPP5 TPR E56A (rat)) | A405 (ELISA) (absorbance at 405 nm) (RnPP5 TPR R113A (rat)) | A405 (ELISA) (absorbance at 405 nm) (RnPP5 TPR Y80A (rat)) | A405 (ELISA) (absorbance at 405 nm) (RnPP5 TPR E29A (rat)) | A405 (ELISA) (absorbance at 405 nm) (RnPP5 TPR R74A (rat)) | A405 (ELISA) (absorbance at 405 nm) (RnPP5 TPR R101A (rat)) | also measured
1 | hsp90 C-12 control phage, displayed peptide … (the 12 residues located at the C-terminus of hsp90) | 1.06 | 1.08 | 0.72 | 1.09 | 1.06 | – | – | A405 (ELISA) (absorbance at 405 nm) (RnPP5 TPR E76A (rat)): 1.12
2 | RFQQMNQSWDVD [T7 phage #1 (VD phage #1), displayed peptide …] | 1 | – | 0.84 | 1.08 | – | 0.75 | – | A405 (ELISA) (absorbance at 405 nm) (RnPP5 TPR I63A (rat)): 0.84; A405 (ELISA) (absorbance at 405 nm) [1]: 1.14; A405 (ELISA) (absorbance at 405 nm) (RnPP5 TPR K40A (rat)): 1.01
3 | KHTVADDELLFG [LFG phage #2, displayed peptide …] | 0.78 | – | 0.74 | – | 0.75 | 0.75 | 0.54 | –
4 | GDDDTSRMEEVD | – | – | – | – | – | – | – | A405 (ELISA) [2]: 0.24 absorbance at 405 nm
5 | RLLSADDDVLFG [LFG phage #1, displayed peptide …] | 0.8 | 0.78 | 0.66 | – | – | – | 0.53 | A405 (ELISA) (absorbance at 405 nm) (RnPP5 TPR K32A (rat)): 0.74
6 | NAHLRLEMNDVD [T7 phage #7 (VD phage with a -4 methionine), displayed peptide NAHLRLEMNDVD] | – | – | – | – | – | – | – | A405 (ELISA) [3]: 0.32 absorbance at 405 nm; A405 (ELISA) [4]: 0.56 absorbance at 405 nm; A405 (ELISA) [5]: 0.04 absorbance at 405 nm
